Measurements taken from article PMC8206089, “Split NanoLuc technology allows quantitation of interactions between PII protein and its receptors with unprecedented sensitivity and reveals transient interactions” (Scientific Reports, 2021).

T1: NAGK-SmBiT (N-acetyl-L-glutamate kinase fused to Small BiT) (Synechocystis sp. PCC 6803, UniProt P73326 1-297)
T1 construct: N-acetyl-L-glutamate kinase (NAGK), Synechocystis sp; PCC 6803; Cloned into pTEV5 (NdeI, BamHI); source: E. coli Lemo21, purified (Ni-NTA HisTrap); not shown: SmBiT (after a 16 amino acids flexible linker), C-terminal, kept
T1 sequence (looked up): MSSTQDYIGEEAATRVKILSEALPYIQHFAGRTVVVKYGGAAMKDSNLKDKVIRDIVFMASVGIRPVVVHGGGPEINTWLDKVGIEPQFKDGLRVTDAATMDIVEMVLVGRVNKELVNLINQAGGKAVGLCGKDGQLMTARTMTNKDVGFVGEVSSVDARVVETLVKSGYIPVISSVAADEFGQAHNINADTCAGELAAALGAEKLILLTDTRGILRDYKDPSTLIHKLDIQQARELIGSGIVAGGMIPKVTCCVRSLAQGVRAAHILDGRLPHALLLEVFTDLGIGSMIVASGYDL

T2: NAGK (as used in the Biolayer interferometry of ref. 17) (UniProt P73326 1-297)
T2 construct: N-acetyl-L-glutamate kinase
T2 sequence (looked up): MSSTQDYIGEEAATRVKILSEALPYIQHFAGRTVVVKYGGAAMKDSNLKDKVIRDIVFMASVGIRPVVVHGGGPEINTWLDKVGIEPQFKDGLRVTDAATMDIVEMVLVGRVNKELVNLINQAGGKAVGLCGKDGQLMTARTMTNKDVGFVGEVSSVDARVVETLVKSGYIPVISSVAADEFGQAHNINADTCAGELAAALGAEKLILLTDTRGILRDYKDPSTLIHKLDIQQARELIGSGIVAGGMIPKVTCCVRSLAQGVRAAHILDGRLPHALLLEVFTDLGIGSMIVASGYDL


What was measured:
[1] = target: T1, NAGK-SmBiT (N-acetyl-L-glutamate kinase …); experiment: split reporter (BiFC, NanoBiT); in solution; NAGK-SmBiT titrated to 10 pM PII-LgBiT variant; 2 mM ATP; 40 min at 30 °C; apparent KD; settings: both partners purified
[2] = target: T1, NAGK-SmBiT (N-acetyl-L-glutamate kinase …); experiment: split reporter (BiFC, NanoBiT); in solution; NAGK-SmBiT titrated to 10 pM PII-LgBiT variant; 2 mM ATP and 2 mM NAG; 40 min at 30 °C; settings: both partners purified
[3] = target: T1, NAGK-SmBiT (N-acetyl-L-glutamate kinase …); experiment: split reporter (BiFC, NanoBiT); in solution; NAGK-SmBiT titrated to 10 pM PII-LgBiT; 2 mM ADP and 50 mM NAG; 40 min at 30 °C; settings: both partners purified
[4] = target: T1, NAGK-SmBiT (N-acetyl-L-glutamate kinase …); experiment: split reporter (BiFC, NanoBiT); in solution; NAGK-SmBiT titrated to 10 pM PII-LgBiT variant; 2 mM ADP; 40 min at 30 °C; apparent KD; settings: both partners purified
[5] = target: T1, NAGK-SmBiT (N-acetyl-L-glutamate kinase …); experiment: split reporter (BiFC, NanoBiT); in solution; NAGK-SmBiT titrated to 10 pM PII-LgBiT; 2 mM ATP, 2 mM Arg and 2 mM NAG; 40 min at 30 °C; settings: both partners purified
[6] = target: T1, NAGK-SmBiT (N-acetyl-L-glutamate kinase …); experiment: split reporter (BiFC, NanoBiT); in solution; NAGK-SmBiT titrated to 10 pM PII-LgBiT variant; no effector molecules; 40 min at 30 °C; apparent KD; settings: both partners purified
[7] = target: T1, NAGK-SmBiT (N-acetyl-L-glutamate kinase …); experiment: split reporter (BiFC, NanoBiT); in solution; NAGK-SmBiT titrated to 10 pM PII-LgBiT variant; 2 mM ATP and 50 mM NAG; 40 min at 30 °C; settings: both partners purified
[8] = target: T1, NAGK-SmBiT (N-acetyl-L-glutamate kinase …); experiment: split reporter (BiFC, NanoBiT); in solution; NAGK-SmBiT (3-666 nM) titrated to 10 pM PII-LgBiT variant; 2 mM ATP and 2 mM arginine; 40 min at 30 °C; settings: both partners purified
[9] = target: T1, NAGK-SmBiT (N-acetyl-L-glutamate kinase …); experiment: split reporter (BiFC, NanoBiT); in solution; NAGK-SmBiT titrated to 10 pM PII-LgBiT; 2 mM ADP and 2 mM NAG; 40 min at 30 °C; settings: both partners purified
[10] = target: T1, NAGK-SmBiT (N-acetyl-L-glutamate kinase …); experiment: split reporter (BiFC, NanoBiT); in solution; NAGK-SmBiT titrated to 10 pM PII-LgBiT; 2 mM ATP, 2 mM Arg and 50 mM NAG; 40 min at 30 °C; settings: both partners purified
[11] = target: T2, NAGK (as used in the Biolayer …); experiment: BLI; binding curves of ref. 17 re-calculated here by curve fitting from association and dissociation kinetics (Octet data analysis HT software); apparent KD

| Binder | Kd [1] [nM] | Kd [2] [nM] | Kd [3] [nM] | Kd [4] [nM] | Kd [5] [nM] | Kd [6] [nM] | Kd [7] [nM] | Kd [8] [nM] | Kd [9] [nM] | Kd [10] [nM] | Kd [11] [nM] |
| --- | --- | --- | --- | --- | --- | --- | --- | --- | --- | --- | --- |
| PII (as used in the Biolayer interferometry of ref. 17) (natural protein, UniProt Q55247 1-112, looked up, PII signalling protein) MKKVEAIIRPFKLDEVKIALVNAGIVGMTVSEVRGFGRQKGQTERYRGSEYTVEFLQKLKIEIVVDEGQVDMVVDKLVSAARTGEIGDGKIFISPVDSVVRIRTGEKDTEAI | – | – | – | – | – | – | – | – | – | – | 11.7 ± 0.005 |
| PII-I86N-LgBiT (PII variant I86N fused to Large BiT) (natural protein, Synechocystis sp. PCC6803, UniProt Q55247 1-112, looked up, PII signalling protein, Synechocystis sp; PCC 6803, variant I86N; Same fusion as m1 with I86N; the text once words the change as 'IIe86 to Asp86'; source: E. coli Lemo21, purified (Strep-Tactin Superflow); not shown: Strep-tag, internal (between PII and LgBiT), kept; LgBiT, C-terminal, kept) MKKVEAIIRPFKLDEVKIALVNAGIVGMTVSEVRGFGRQKGQTERYRGSEYTVEFLQKLKIEIVVDEGQVDMVVDKLVSAARTGENGDGKIFISPVDSVVRIRTGEKDTEAI | 7 | 4.1 | – | 11.7 | – | 12.9 | 0.68 | 1.56 | – | – | – |

The remaining binders from weak to strong by Kd [1], led by results:

| Kd [1] [nM] | Kd [2] [nM] | Kd [3] [nM] | Kd [4] [nM] | Kd [5] [nM] | Kd [6] [nM] | Kd [7] [nM] | Kd [8] [nM] | Kd [9] [nM] | Kd [10] [nM] | Kd [11] [nM] | Binder |
| --- | --- | --- | --- | --- | --- | --- | --- | --- | --- | --- | --- |
| 155 | 10.7 | – | 95.3 | – | 133 | 3.39 | 432 | – | – | – | PII-S49E-LgBiT (phosphomimetic T-loop variant of PII fused to Large BiT) (natural protein, Synechocystis sp. PCC6803, UniProt Q55247 1-112, looked up, PII signalling protein, Synechocystis sp; PCC 6803, variant S49E; Same fusion as m1 with S49E; also called S49E PII variant; source: E. coli Lemo21, purified (Strep-Tactin Superflow); not shown: Strep-tag, internal (between PII and LgBiT), kept; LgBiT, C-terminal, kept) MKKVEAIIRPFKLDEVKIALVNAGIVGMTVSEVRGFGRQKGQTERYRGEEYTVEFLQKLKIEIVVDEGQVDMVVDKLVSAARTGEIGDGKIFISPVDSVVRIRTGEKDTEAI |
| 8.8 | 4.7 | 1.2 | 30.8 | 16.5 | 12.9 | 0.74 | 17.8 | 14.9 | 9.5 | – | PII-LgBiT (wild-type PII protein from Synechocystis sp. PCC6803 fused to Large BiT) (natural protein, UniProt Q55247 1-112, looked up, PII signalling protein, Synechocystis sp; PCC 6803; LgBiT is fused at the C-terminally located Strep-tag purification linker of PII; cloned in pASK-IBA3; also called PII (WT); source: E. coli Lemo21, purified (Strep-Tactin Superflow); not shown: Strep-tag, internal (between PII and LgBiT), kept; LgBiT, C-terminal, kept) MKKVEAIIRPFKLDEVKIALVNAGIVGMTVSEVRGFGRQKGQTERYRGSEYTVEFLQKLKIEIVVDEGQVDMVVDKLVSAARTGEIGDGKIFISPVDSVVRIRTGEKDTEAI |
